Assay results from the Immune Epitope Database (IEDB).
Each block holds one sequence with its values, some of them ahead of it.

Experiments:
[1] = biological target: HLA-A*29:02; test: IEDB peptide-MHC binding, purified MHC/direct/fluorescence; filed as Kd, often an IC50 or EC50 that approximates it; ≥ and ≤ were set here for values at or beyond the usual limits of such assays; settings: source organism: Zaire ebolavirus
[2] = biological target: HLA-A*01:01; test: as above; settings: source organism: Zaire ebolavirus
[3] = biological target: HLA-A*03:01; test: as above; settings: source organism: Zaire ebolavirus
[4] = biological target: HLA-A*02:12; test: as above; settings: source organism: Zaire ebolavirus
[5] = biological target: HLA-A*02:19; test: as above; settings: source organism: Zaire ebolavirus
[6] = biological target: HLA-A*02:03; test: as above; settings: source organism: Zaire ebolavirus
[7] = biological target: HLA-A*23:01; test: as above; settings: source organism: Zaire ebolavirus
[8] = biological target: HLA-A*68:02; test: as above; settings: source organism: Zaire ebolavirus
[9] = biological target: HLA-A*24:03; test: as above; settings: source organism: Zaire ebolavirus
[10] = biological target: HLA-A*02:11; test: as above; settings: source organism: Zaire ebolavirus
[11] = biological target: HLA-A*02:16; test: as above; settings: source organism: Zaire ebolavirus
[12] = biological target: HLA-B*15:01; test: IEDB peptide-MHC binding, purified MHC/competitive/fluorescence; filed as Kd, often an IC50 or EC50 that approximates it; ≥ and ≤ were set here for values at or beyond the usual limits of such assays
[13] = biological target: HLA-B*18:01; test: as above
[14] = biological target: HLA-B*57:01; test: as above; settings: source organism: Zaire ebolavirus
[15] = biological target: HLA-A*26:01; test: as above; settings: source organism: Zaire ebolavirus
[16] = biological target: HLA-B*39:01; test: as above
[17] = biological target: HLA-B*46:01; test: as above
[18] = biological target: HLA-B*51:01; test: as above; settings: source organism: Zaire ebolavirus
[19] = biological target: HLA-A*69:01; test: as above
[20] = biological target: HLA-B*27:03; test: as above; settings: source organism: Zaire ebolavirus
[21] = biological target: HLA-A*02:01; test: as above
[22] = biological target: HLA-B*15:01; test: IEDB peptide-MHC binding, purified MHC/competitive/fluorescence; ≥ and ≤ were set here for values at or beyond the usual limits of such assays; settings: source organism: Zaire ebolavirus
[23] = biological target: HLA-A*01:01; test: as above; settings: source organism: Zaire ebolavirus
[24] = biological target: HLA-A*11:01; test: as above; settings: source organism: Zaire ebolavirus
[25] = biological target: HLA-A*02:01; test: as above; settings: source organism: Zaire ebolavirus
[26] = biological target: HLA-A*01:01; test: IEDB peptide-MHC binding, purified MHC/competitive/fluorescence; filed as Kd, often an IC50 or EC50 that approximates it; ≥ and ≤ were set here for values at or beyond the usual limits of such assays
[27] = biological target: HLA-A*11:01; test: as above; settings: source organism: Human immunodeficiency virus 1
[28] = biological target: HLA-B*15:17; test: as above; settings: source organism: Human immunodeficiency virus 1
[29] = biological target: HLA-B*08:02; test: as above
[30] = biological target: HLA-A*30:01; test: as above
[31] = biological target: HLA-C*15:02; test: IEDB peptide-MHC binding, purified MHC/direct/fluorescence; filed as Kd, often an IC50 or EC50 that approximates it; ≥ and ≤ were set here for values at or beyond the usual limits of such assays; settings: source organism: Bacillus anthracis str. A0488
[32] = biological target: HLA-C*12:03; test: as above; settings: source organism: Bacillus anthracis str. A0488
[33] = biological target: HLA-C*14:02; test: as above; settings: source organism: Bacillus anthracis str. A0488
[34] = biological target: HLA-B*15:02; test: IEDB peptide-MHC binding, purified MHC/competitive/fluorescence; filed as Kd, often an IC50 or EC50 that approximates it; ≥ and ≤ were set here for values at or beyond the usual limits of such assays
[35] = biological target: HLA-A*03:01; test: as above; settings: source organism: Corynebacterium glutamicum R
[36] = biological target: HLA-B*58:01; test: as above; settings: source organism: Corynebacterium glutamicum R
[37] = biological target: HLA-B*40:01; test: as above; settings: source organism: Corynebacterium glutamicum R
[38] = biological target: HLA-B*35:01; test: as above; settings: source organism: Corynebacterium glutamicum R
[39] = biological target: HLA-B*07:02; test: as above; settings: source organism: Corynebacterium glutamicum R
[40] = biological target: HLA-B*27:05; test: as above; settings: source organism: Corynebacterium glutamicum R
[41] = biological target: HLA-A*31:01; test: as above; settings: source organism: Corynebacterium glutamicum R
[42] = biological target: HLA-B*08:01; test: as above; settings: source organism: Corynebacterium glutamicum R
[43] = biological target: HLA-B*58:01; test: IEDB peptide-MHC binding, purified MHC/direct/fluorescence; filed as Kd, often an IC50 or EC50 that approximates it; ≥ and ≤ were set here for values at or beyond the usual limits of such assays; settings: source organism: Sudan ebolavirus - Maleo (1979)
[44] = source organism: Zaire ebolavirus
[45] = source organism: Human immunodeficiency virus 1
[46] = source organism: Corynebacterium glutamicum R

Sequence: ATEDPSSGY
Kd [1]: ≥ 20 µM
Kd [2]: 438 nM
Kd [3]: ≥ 20 µM
Kd [4]: ≥ 20 µM
Kd [5]: ≥ 20 µM
Kd [6]: ≥ 20 µM
Kd [7]: ≥ 20 µM
Kd [8]: ≥ 20 µM
Kd [9]: ≥ 20 µM
Kd [10]: ≥ 20 µM
Kd [11]: ≥ 20 µM
Kd [12, 44]: ≥ 20 µM
Kd [13, 44]: ≥ 20 µM
Kd [14]: ≥ 20 µM
Kd [15]: ≥ 20 µM
Kd [16, 44]: ≥ 20 µM
Kd [17, 44]: ≥ 20 µM
Kd [18]: ≥ 20 µM
Kd [19, 44]: ≥ 20 µM
Kd [20]: ≥ 20 µM
Kd [21, 44]: ≥ 20 µM
IC50 [22]: ≥ 97.2 µM
IC50 [23]: ≥ 154 µM
IC50 [24]: 49.6 µM
IC50 [25]: ≥ 379 µM

Sequence: GTEELKSLY
Kd [26, 45]: 0.0163 µM
Kd [27]: ≥ 20 µM
Kd [28]: 59.5 nM
Kd [16, 45]: ≥ 20 µM
Kd [29, 45]: ≥ 20 µM
Kd [30, 45]: ≥ 20 µM

Sequence: YLARYSGSM
Kd [31]: ≥ 20 µM
Kd [32]: 300 nM
Kd [33]: 30 nM
Kd ([34]; source organism: Bacillus anthracis str. A0488): 12.3 nM

Kd [12, 46]: ≥ 20 µM
Kd [13, 46]: ≥ 20 µM
Kd [26, 46]: 19.7 µM
Kd [35]: ≥ 20 µM
Kd [36]: ≥ 20 µM
Kd [17, 46]: ≥ 20 µM
Kd [37]: ≥ 20 µM
Kd [38]: ≥ 20 µM
Kd [29, 46]: ≥ 20 µM
Kd [30, 46]: ≥ 20 µM
Kd [39]: ≥ 20 µM
Kd [19, 46]: ≥ 20 µM
Kd [21, 46]: ≥ 20 µM
Kd [40]: ≥ 20 µM
Kd [41]: ≥ 20 µM
Kd [42]: ≥ 20 µM
Sequence: RYDDGQSIY

Sequence: YIRGVCSAF
Kd ([34]; source organism: Vibrio parahaemolyticus RIMD 2210633): 80.7 nM

Sequence: TGIVSSMHY
Kd [3]: ≥ 20 µM
Kd [4]: ≥ 20 µM
Kd [43]: ≥ 20 µM
Kd [5]: ≥ 20 µM
Kd [6]: ≥ 20 µM
Kd [7]: ≥ 20 µM
Kd [8]: ≥ 20 µM
Kd [9]: ≥ 20 µM
Kd [10]: ≥ 20 µM
Kd [13, 44]: ≥ 20 µM
Kd [14]: ≥ 20 µM
Kd [15]: ≥ 20 µM
Kd [16, 44]: ≥ 20 µM
Kd [17, 44]: ≥ 20 µM
Kd [18]: ≥ 20 µM
Kd [19, 44]: ≥ 20 µM
Kd [20]: ≥ 20 µM
Kd [21, 44]: ≥ 20 µM
